The supplement of paper PMC9876800

Tested on: peptide library, one residue held at a place counted from the S/T acceptor
Experiment: relative phosphorylation of the sub-library (ratio to the mean residue at this position); higher = residue favoured
Outline: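 Each biotinylated degenerate peptide sub-library fixed one residue at one position around a central Ser/Thr and was incubated with a purified recombinant kinase, a human or orthologue construct, in 384-well plates. The 90 min reactions, under kinase-specific conditions, contained 50 μM peptide and 50 μM ATP spiked with γ-32P-ATP. Phosphorylation was read by phosphorimaging spots on streptavidin membranes and quantifying them by densitometry. Relative sub-library phosphorylation expresses each value as a ratio to the mean residue at that position.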

CILK1, construct: Full length, human, sequence (Q9UPZ9 whole entry, looked up): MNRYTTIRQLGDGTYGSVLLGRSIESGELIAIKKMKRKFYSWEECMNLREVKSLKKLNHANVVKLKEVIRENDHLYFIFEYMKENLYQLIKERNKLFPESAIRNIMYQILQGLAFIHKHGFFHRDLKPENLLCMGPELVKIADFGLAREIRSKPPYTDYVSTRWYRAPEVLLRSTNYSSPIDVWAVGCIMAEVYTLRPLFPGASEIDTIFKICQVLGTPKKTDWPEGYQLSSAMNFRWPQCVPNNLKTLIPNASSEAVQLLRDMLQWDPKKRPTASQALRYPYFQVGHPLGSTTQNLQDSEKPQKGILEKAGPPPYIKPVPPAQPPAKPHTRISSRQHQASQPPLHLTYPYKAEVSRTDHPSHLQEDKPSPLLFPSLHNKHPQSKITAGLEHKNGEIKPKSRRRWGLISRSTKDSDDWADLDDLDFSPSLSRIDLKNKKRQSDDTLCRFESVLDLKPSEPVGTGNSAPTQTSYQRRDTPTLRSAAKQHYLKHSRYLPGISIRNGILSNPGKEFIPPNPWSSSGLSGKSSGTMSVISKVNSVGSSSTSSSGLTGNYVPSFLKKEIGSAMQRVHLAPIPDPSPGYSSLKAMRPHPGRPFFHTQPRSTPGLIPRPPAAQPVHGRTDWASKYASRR

CILK1, construct: Full length, human (from UniProt Q9UPZ9)
relative phosphorylation (A fixed, at +1): 1.36 | relative phosphorylation (A fixed, at +2): 0.902 | relative phosphorylation (A fixed, at +3): 0.838 | relative phosphorylation (A fixed, at +4): 1.02 | relative phosphorylation (A fixed, at -1): 0.938 | relative phosphorylation (A fixed, at -2): 0.718 | relative phosphorylation (A fixed, at -3): 0.93 | relative phosphorylation (A fixed, at -4): 1.04 | relative phosphorylation (A fixed, at -5): 0.881 | relative phosphorylation (D fixed, at +1): 0.474 | relative phosphorylation (D fixed, at +2): 1.08 | relative phosphorylation (D fixed, at +3): 0.774 | relative phosphorylation (D fixed, at +4): 0.815 | relative phosphorylation (D fixed, at -1): 0.661 | relative phosphorylation (D fixed, at -2): 0.491 | relative phosphorylation (D fixed, at -3): 0.557 | relative phosphorylation (D fixed, at -4): 0.803 | relative phosphorylation (D fixed, at -5): 1.07 | relative phosphorylation (E fixed, at +1): 0.464 | relative phosphorylation (E fixed, at +2): 0.744 | relative phosphorylation (E fixed, at +3): 0.722 | relative phosphorylation (E fixed, at +4): 0.771 | relative phosphorylation (E fixed, at -1): 0.577 | relative phosphorylation (E fixed, at -2): 0.498 | relative phosphorylation (E fixed, at -3): 0.498 | relative phosphorylation (E fixed, at -4): 0.825 | relative phosphorylation (E fixed, at -5): 0.875 | relative phosphorylation (F fixed, at +1): 0.972 | relative phosphorylation (F fixed, at +2): 0.992 | relative phosphorylation (F fixed, at +3): 0.98 | relative phosphorylation (F fixed, at +4): 0.809 | relative phosphorylation (F fixed, at -1): 0.675 | relative phosphorylation (F fixed, at -2): 0.559 | relative phosphorylation (F fixed, at -3): 0.567 | relative phosphorylation (F fixed, at -4): 0.922 | relative phosphorylation (F fixed, at -5): 0.991 | relative phosphorylation (G fixed, at +1): 1.22 | relative phosphorylation (G fixed, at +2): 1.08 | relative phosphorylation (G fixed, at +3): 1.23 | relative phosphorylation (G fixed, at +4): 1.29 | relative phosphorylation (G fixed, at -1): 1.22 | relative phosphorylation (G fixed, at -2): 0.82 | relative phosphorylation (G fixed, at -3): 0.734 | relative phosphorylation (G fixed, at -4): 1.08 | relative phosphorylation (G fixed, at -5): 1.03 | relative phosphorylation (H fixed, at +1): 0.668 | relative phosphorylation (H fixed, at +2): 1.27 | relative phosphorylation (H fixed, at +3): 1.22 | relative phosphorylation (H fixed, at +4): 1.25 | relative phosphorylation (H fixed, at -1): 1.04 | relative phosphorylation (H fixed, at -2): 0.615 | relative phosphorylation (H fixed, at -3): 0.662 | relative phosphorylation (H fixed, at -4): 0.982 | relative phosphorylation (H fixed, at -5): 1.1 | relative phosphorylation (I fixed, at +1): 0.907 | relative phosphorylation (I fixed, at +2): 0.936 | relative phosphorylation (I fixed, at +3): 0.834 | relative phosphorylation (I fixed, at +4): 0.819 | relative phosphorylation (I fixed, at -1): 0.497 | relative phosphorylation (I fixed, at -2): 0.55 | relative phosphorylation (I fixed, at -3): 0.556 | relative phosphorylation (I fixed, at -4): 0.768 | relative phosphorylation (I fixed, at -5): 0.802 | relative phosphorylation (K fixed, at +1): 0.752 | relative phosphorylation (K fixed, at +2): 0.968 | relative phosphorylation (K fixed, at +3): 1.33 | relative phosphorylation (K fixed, at +4): 1.09 | relative phosphorylation (K fixed, at -1): 1.63 | relative phosphorylation (K fixed, at -2): 1.09 | relative phosphorylation (K fixed, at -3): 1.07 | relative phosphorylation (K fixed, at -4): 1.21 | relative phosphorylation (K fixed, at -5): 1.1 | relative phosphorylation (L fixed, at +1): 0.818 | relative phosphorylation (L fixed, at +2): 0.859 | relative phosphorylation (L fixed, at +3): 0.957 | relative phosphorylation (L fixed, at +4): 0.933 | relative phosphorylation (L fixed, at -1): 0.755 | relative phosphorylation (L fixed, at -2): 0.616 | relative phosphorylation (L fixed, at -3): 0.556 | relative phosphorylation (L fixed, at -4): 0.835 | relative phosphorylation (L fixed, at -5): 0.953 | relative phosphorylation (M fixed, at +1): 0.929 | relative phosphorylation (M fixed, at +2): 0.967 | relative phosphorylation (M fixed, at +3): 0.877 | relative phosphorylation (M fixed, at +4): 0.926 | relative phosphorylation (M fixed, at -1): 1.13 | relative phosphorylation (M fixed, at -2): 0.652 | relative phosphorylation (M fixed, at -3): 0.709 | relative phosphorylation (M fixed, at -4): 1.03 | relative phosphorylation (M fixed, at -5): 0.929 | relative phosphorylation (N fixed, at +1): 0.601 | relative phosphorylation (N fixed, at +2): 1.13 | relative phosphorylation (N fixed, at +3): 0.883 | relative phosphorylation (N fixed, at +4): 1.09 | relative phosphorylation (N fixed, at -1): 1.15 | relative phosphorylation (N fixed, at -2): 0.619 | relative phosphorylation (N fixed, at -3): 0.651 | relative phosphorylation (N fixed, at -4): 0.92 | relative phosphorylation (N fixed, at -5): 0.917 | relative phosphorylation (P fixed, at +1): 3.85 | relative phosphorylation (P fixed, at +2): 0.907 | relative phosphorylation (P fixed, at +3): 1.15 | relative phosphorylation (P fixed, at +4): 1.22 | relative phosphorylation (P fixed, at -1): 1.36 | relative phosphorylation (P fixed, at -2): 4.79 | relative phosphorylation (P fixed, at -3): 1.09 | relative phosphorylation (P fixed, at -4): 1.19 | relative phosphorylation (P fixed, at -5): 1.04 | relative phosphorylation (Q fixed, at +1): 0.751 | relative phosphorylation (Q fixed, at +2): 1.07 | relative phosphorylation (Q fixed, at +3): 1.07 | relative phosphorylation (Q fixed, at +4): 1.11 | relative phosphorylation (Q fixed, at -1): 1.46 | relative phosphorylation (Q fixed, at -2): 0.938 | relative phosphorylation (Q fixed, at -3): 0.794 | relative phosphorylation (Q fixed, at -4): 1.03 | relative phosphorylation (Q fixed, at -5): 1 | relative phosphorylation (R fixed, at +1): 0.79 | relative phosphorylation (R fixed, at +2): 1.02 | relative phosphorylation (R fixed, at +3): 1.25 | relative phosphorylation (R fixed, at +4): 1.04 | relative phosphorylation (R fixed, at -1): 1.53 | relative phosphorylation (R fixed, at -2): 2.19 | relative phosphorylation (R fixed, at -3): 5.98 | relative phosphorylation (R fixed, at -4): 1.55 | relative phosphorylation (R fixed, at -5): 1.32 | relative phosphorylation (V fixed, at +1): 0.877 | relative phosphorylation (V fixed, at +2): 0.781 | relative phosphorylation (V fixed, at +3): 0.799 | relative phosphorylation (V fixed, at +4): 0.739 | relative phosphorylation (V fixed, at -1): 0.694 | relative phosphorylation (V fixed, at -2): 0.555 | relative phosphorylation (V fixed, at -3): 0.515 | relative phosphorylation (V fixed, at -4): 0.791 | relative phosphorylation (V fixed, at -5): 0.776 | relative phosphorylation (W fixed, at +1): 0.87 | relative phosphorylation (W fixed, at +2): 1.12 | relative phosphorylation (W fixed, at +3): 1.02 | relative phosphorylation (W fixed, at +4): 1.03 | relative phosphorylation (W fixed, at -1): 0.835 | relative phosphorylation (W fixed, at -2): 0.69 | relative phosphorylation (W fixed, at -3): 0.609 | relative phosphorylation (W fixed, at -4): 1.14 | relative phosphorylation (W fixed, at -5): 1.15 | relative phosphorylation (Y fixed, at +1): 0.702 | relative phosphorylation (Y fixed, at +2): 1.17 | relative phosphorylation (Y fixed, at +3): 1.08 | relative phosphorylation (Y fixed, at +4): 1.05 | relative phosphorylation (Y fixed, at -1): 0.845 | relative phosphorylation (Y fixed, at -2): 0.604 | relative phosphorylation (Y fixed, at -3): 0.522 | relative phosphorylation (Y fixed, at -4): 0.89 | relative phosphorylation (Y fixed, at -5): 1.06 | relative phosphorylation (pThr fixed, at +1): 0.722 | relative phosphorylation (pThr fixed, at +2): 0.66 | relative phosphorylation (pThr fixed, at +3): 0.828 | relative phosphorylation (pThr fixed, at +4): 1.06 | relative phosphorylation (pThr fixed, at -1): 0.459 | relative phosphorylation (pThr fixed, at -2): 0.561 | relative phosphorylation (pThr fixed, at -3): 0.625 | relative phosphorylation (pThr fixed, at -4): 0.828 | relative phosphorylation (pThr fixed, at -5): 0.807 | relative phosphorylation (pTyr fixed, at +1): 0.711 | relative phosphorylation (pTyr fixed, at +2): 0.992 | relative phosphorylation (pTyr fixed, at +3): 0.796 | relative phosphorylation (pTyr fixed, at +4): 0.93 | relative phosphorylation (pTyr fixed, at -1): 0.513 | relative phosphorylation (pTyr fixed, at -2): 0.514 | relative phosphorylation (pTyr fixed, at -3): 0.564 | relative phosphorylation (pTyr fixed, at -4): 0.68 | relative phosphorylation (pTyr fixed, at -5): 0.841
